Experimental data as given in the DeepSol protein solubility set.

Assay: soluble on expression in E. coli; label from the status in PepcDB or PDB records

| Sequence | soluble on expression in E. coli |
| --- | --- |
| MGTWPLTVTKEMEKRKELFRRDPNRALIGAGGYKAADEAIVHDAAIALALGKNVLLKGPTGSGKTRLAETLSALFGQPMHSINCSVDLDAEALLGFKTIVHKNSQAVIEYVPGPVIQAMTKGHLLYIDEINMAKPETLPILNSVLDYRRRLTNPLTGDIVQAKQTFGVIAAINEGYIGTVPLNEALKNRFVVINVPYVQGETLKSVLLAQTTLTDETLIDRFVALSADLLAQVRNGQIAEEAASVRALLDACDLAAYMPPLRAIERSIVDKLDDERERAAVRNIAETWFDE | not soluble |
| MGHHHHHHSHQHLEVRDEVAEKCQKLFLDFLEEFQSSDGEIKYLQLAEELIRPERNTLVVSFVDLEQFNQQLSTTIQEEFYRVYPYLCRALKTFVKDRKEIPLAKDFYVAFQDLPTRHKIRELTSSRIGLLTRISGQVVRTHPVHPELVSGTFLCLDCQTVIRDVEQQFKYTQPNICRNPVCANRRRFLLDTNKSRFVDFQKVRIQETQAELPRGSIPRSLEVILRAEAVESAQAGDKCDFTGTLIVVPDVSKLSTPGARAETNSRVSGVDGYETEGIRGL | not soluble |
| MKKLIIIPAYNESSNIVNTIRTIESDAPDFDYIIIDDCSTDNTLAICQKQGFNVISLPINLGIGGAVQTGYRYAQRCGYDVAVQVDGDGQHNPCYLEKMVEVLVQSSVNMVIGSRFITKEGFQSSFARRIGIKYFTWLIALLTGKKITDATSGLRLIDRSLIERFANHYPDDYPEPETVVDVLVSHFKVKEIPVVMNERQGGVSSISLTKSVYYMIKVTLAILVVRLKGNR | not soluble |
| MGSDKIHHHHHHQSGPLRLEITEGVIEPLPFALPTFLAVGGAEDAAADVSRVIAADLRGTGLFRQIPPDAYISQITNFGAPVAYPDWQAINAQALITGQVEARADGQLVVRFRLFDVFSQAPLGEGLQFVGPADSWRRMAHTVADQVYSRITGEGGYFDTRVAFIAEEGPKNARLKRLAIMDYDGANVQFLTDSRSIVLAPRFSPQGDRILYTSYESGFPQVYIMDVATVQRRPLEAIPAETMTFSPRFSPSGQSVVFSLVDGSNTDIYSLDLATGTRRQLTQAPSIETAPSFSPDGSQIVFESDRSGNQQIYIMPADGGEARRVSAGTGRYGTPVWSPRGDYIAFTKQENGRFHIGVMRTDGSDERLLTSSFLDEGPTWAPNGRVIMFTRETPGDDGAPAVYSVDISGRNLQRVATPGMASDPAWSPLQS | not soluble |
| MPDSMSEQLRRDMQCEGLLECFHGLKELDKECFRALVEAEEPLTVDELADAVDRERSTAYRAVQRLLQTGFIEKDQINYDQGGYYHVYSPTDPSQIADEMQRMLNDWYAKMGQLIQEFENKYEQSESTAPTVES | soluble |
| MGSDKIHHHHHHMSETEPTSEQPHIAITGGAGYIGSRVIYELQQAHPDWEITAIDNFYLGTVQSVGDVDIEHVDIRNRDRLEAALDGADVVMHLAAVSGVDDCEEKQDLAYEVNVQGTDNVAWFCRKTGAALIFPFSMAVIGDPQEFPITVDHPRDPLNWYGRTKLLNERDVETYADGAFPAHQFMISNLYGSHEIDGQTVSKGTVINFFVNRALAGETLTVYEPGTQSRNFIHVKDVARAYVDSCERLLEQLDRGETGVEKYEIASDEDPSVHTVAKLVRDIAADIADIDADVELVENPRGDDETLVDSFTVDTGRTTAALGWTPEHDVESAIRTALESANT | not soluble |
| MAHHHHHHMGSLVMGRCRRGAEETFEFREEYALLDAPIANAEHIPLRLRPQERKIQRLMRGVILASSYTDKVDSASALKLKNRELLVVKELTNALTGLIVGLDMRKAASFMRDHEFTPYQHEIRAAIEMCRRYKMMNPDLLRTDYVKFLYMIQDAVQSDMAREALGFNVVKELVTVGRYCETHNMQDILQDTRLPHCITPVPVMKDRNMLNRCLRGKDAVVGKLVKQYASEHRMHEDNVEVVVRSLNDANCFSNDNVETSERLLELLKQYFTPISCTELTSLAIDEGADGSRLTHNHKMQYIFVLQSLSLWKNMCRKMYMLWSLAEEDMLNPNEKYELRMTGQGLQRVQKAPQLFKAIQQVLQETKEELGEWVGSERIHLGDDQVPNAFHFIDKYGQVSRIIIPILRTLGHIDQLERHADHAAYLREVWGGGEQAKRAILRDFFRHGFDGSGGDNMDDAGSCIDGRLTSAWNWCNNIRFKEFYPLFLFSGFSSFDGDMGL | soluble |
| MSDAMPLDQTLEQLTQDEWIDIPQGWSQGRTIYGGLVAGLLMHKALSVMNDESKNLLSTSITFVGPVNEGRVRLTVEILRQGKSVTTIEARLWQDQAVQTILIASFGQPRSLEHHHHHH | not soluble |
| MSTAAKQNRSTSRVSKKKTAAPKEGAAKKSDKGHKYEYVELAKASLTSAQPQHFYAVVIDATFPYKTNQERYICSLKIVDPTLYLKQQKGAGDASDYATLVLYAKRFEDLPIIHRAGDIIRVHRATLRLYNGQRQFNANVFYSSSWALFSTDKRSVTQEINNQDAVSDTTPFSFSSKHATIEKNEISILQNLRKWANQYFSSYSVISSDMYTALNKAQAQKGDFDVVAKILQVHELDEYTNELKLKDASGQVFYTLSLKLKFPHVRTGEVVRIRSATYDETSTQKKVLILSHYSNIITFIQSSKLAKELRAKIQDDHSVEVASLKKNVSLNAVVLTEVDKKHAALPSTSLQDLFHHADSDKELQAQDTFRTQFYVTKIEPSDVKEWVKGYDRKTKKSSSLKGASGKGDNIFQVQFLVKDASTQLNNNTYRVLLYTQDGLGANFFNVKADNLHKNADARKKLEDSAELLTKFNSYVDAVVERRNGFYLIKDTKLIY | soluble |
| MGHHHHHHHHMTTSILDTYPQICSPNALPGTPGNLTKEQEEALLQFRSILLEKNYKERLDDSTLLRFLRARKFDINASVEMFVETERWREEYGANTIIEDYENNKEAEDKERIKLAKMYPQYYHHVDKDGRPLYFEELGGINLKKMYKITTEKQMLRNLVKEYELFATYRVPACSRRAGYLIETSCTVLDLKGISLSNAYHVLSYIKDVADISQNYYPERMGKFYIIHSPFGFSTMFKMVKPFLDPVTVSKIFILGSSYKKELLKQIPIENLPVKYGGTSVLHNPNDKFYYSDIGPWRDPRYIGPEGEIPNIFGKFTVTS | soluble |
| MTTALHITLITETFPPEINGVANTLGRLCEGLRARGHQVELVRPRQGCDQSRASDEALLLCRGWPLPGYPGLQWGQSSMHKLLRRWKRQRPDVLYIATEGPLGLSALRAAKRLGISVVSGFHTNFQQYSSQYGLGLLTRLLTHYLRWFHNRSQLTLVPSASQHLELERRHFERLALLSRGVDSQLFHPAKRLDTLRADWGLGTDDLAVIHVGRLAQEKNLGLLKRCFERLQATYPQRRMKLIVVGDGPQRGALEKSLPEALFCGSQRGEALAAHYACGDLFLFPSLTETFGNVVLEALASGLAVVAYDQAGAAQHIRHGYNGVLAMPGDESAFCDAASWLLEEPETLRRVRLNARQHASRQGWAAVIEQFEDRLRSACEHGPAEDYEGLIEATVKPRSAVETLGTARGLPPSPPGAGSLEHHHHHH | soluble |
| MVKLLTINSHSWMEEDPQKKLEILGKTILENDYDVICVQEVNQLLHSEPAKDLPNYCQVAGTPAIHKDNYALQLVTFLLEQERVYYWSWAYNHIGYDRFQEGVAILSKTPLVSQGILISDVDDEHDYHTRRALLGKTKIDQEDIAIVSLHMSWWNKGFQGEWNKLERVLSNLKLPLLLMGDFNNPYENEGYQAILKSSLKLQDSHQSAKITYGKATIQKEIDGWQGNQEALKVDYVFLSSDWQVEKSEVIFDGKHYPMISDHCGLACQANLNK | not soluble |
| MGSDKIHHHHHHMPVDSKHPLWLANQPRWERCRTALQGRDAVHAAGEKYLPKLAGQDKAEYDAYKGRAMFYGATARTEEALIGMVFRKEPTVTLPAALQPMIEDADLAGTPVDTFIENVTKEVIDVTRVGVLVDYPVASGEFMTVGQAQAAGMRPYLATYKAEAIINWRTARVRGVNQLVLVVLAECYTDPKDEFTAEEKTQYRVLDLVDGFYRVRIYRTDLNTPAFEYTPMMNGKRLPYIPFVLIGRNGEAIDPQKPVLLDLVDVNMSHYRGTADYEHALHFTALPTAVVIGHELKEGQALKIGSSEAWVFTDPQADAKYLEFSGQGLDSIKVSLERKEGMMATLGARILAPEKRDAEAAETAKIHRAGENSVLGGIALGVGRSLAKAFRWAAEWAGAGSGTVEVKLNTEFFPAGLTAQDLTALVGALQAAAISPQTFYDNMRRGSIIDDGVTFEEEQDRIEAAGPALGTLGGQDVKPANGAV | not soluble |
| MTWEFENPLFVNSSGTAVGPKEKEGPLGHLFDKSYDEMHCNQKNWEMAERKLMEDAVQSALSKQNLKKEDIDIFLAGDLLNQNVTANYVARHLKIPFLCLFGACSTSMESIAISSALIDGGFAKRALAATSSHNATAERQFRYPTEYGGQKPGTATSTVTGSGAVVLSQQPGGIKITSATVGRVIDLGITDSQDMGSAMAPAAADTIKQHLEDLGRTPDDYDLILTGDLSGVGSPILKDLLKEEGINVGTKHNDCGLMIYTPDQQVFAGGSGCACSAVVTFAHIFKEIEAGRLNRVLVVATGALLSPTIIQQKESIPCIAHGVVFERAERGNALEHHHHHH | not soluble |
| MKVSTKDKIIESAVMLFNQKGFSGTSVREIAKSADVNVAHISYYFKGKGGLMEHLVSEFYEGYSKTLETAASNISTQSTQEQLLQLVFDILSYQHNHRQLTRFVYREVTIDSTLIREIMSTYLMKEKYIFQLIIEEGEKQREYLTLPLPHFILQLKSLLMMPYLQPQYISEVLYMQPHEPYFYKMYFEEIKIWIRSVFRTGDVALTN | not soluble |
| MAHHHHHHMPGPGLLPDGWFREESTMWPGQAQGLKVEKVLYDQPTEFQHLTVFESDPSGPWGTVMTLDGAIQLTDYDEFVYHEMLANLSLACHHKPERVLVIGGGDGGVVREVLRHKSEKDGVVQSVELVDIDGAVMQQSKKHFPQVACGFANPCVTATVGDGAAFVRNVPDSVYDVIIIDTTDPKGPASELFGADFYTNVLRILRPGGVVCNQGESVWLHRPLIEKMMGFLKKDIGFATVKYAMIYIPTYPCGSIGTLVCAKSADTDVTVPMRPVESLGFADQLKYYSSDMHKAAFVLPRFAAHLNE | soluble |
| MKTYDPATAVKTTGEFNGKKRFAVLLMGTDTGALNRTEKRGRTDTMILAVVNPAKKRYTLVSIPRDTMAQMVGSSSFTTEKINAAYEIGGARMSMDSVSALINVPIKYYAVVNMGGIMKMIRYVGGINIRPTLSFEYGGYVFKKGKLTHMGGAGALAYSRMRYDDPRGDYGRQERQRQVITTLIKKAVSVSSLTNLDSILTSVSSNVRTNLPFSALQQIALNYRGCANSSSSDYLHGYNAMIDDAAYQVQPTEELQRISDLVRTELGLEHHHHHH | soluble |
| MGHHHHHHSHIHRIDSTEVIYQPRRKRAKLIGKYLMGDLLGEGSYGKVKEVLDSETLCRRAVKILKKKKLRRIPNGEANVKKEIQLLRRLRHKNVIQLVDVLYNEEKQKMYMVMEYCVCGMQEMLDSVPEKRFPVCQAHGYFCQLIDGLEYLHSQGIVHKDIKPGNLLLTTGGTLKISDLGVAEALHPFAADDTC | not soluble |
| SLNSVTRLDGANRYEVAVNVSKQGWTSASTVIVANGKAYADVLSATPFAYRNNAPVLLTEASKLPTATKNRISQLKPSKVIVIGGTVSVQNGVVSEIKKLGVSSVERIGGANRYEVAANIANKLPSNSKAVIANGTAYADSLAIGAYAARNGIPILLTSSNSIPTATKNAMKSKGTTSTIVVGGEVSISSSVYKQLASPTRIGGSNRYEVAANVVKKYYSSAKNAIISNGYAYADGLTGSVLAAKQNRPMMFTNASSLPTPTREVIGSKNMTTFTVLGGTVSLQSNVVSQLKN | not soluble |
| GDFAYTVGFNMSKNWNKVTNLGANDPIIESPWIKKVGYAIGTFYGYRSDGLLTQEDIDTGNYITDGLVPQAGDIKYVDLDGDGKLTDKDRTYIGCDVPDITYGVNLNLRYKGFELSMFGQGVTGTKVNFSMENAWAFSDYASPRKYHLKRWTVDNPNPNAAYPRIYPRTSKHSTYNQYFSDYWLFNADYFRIKNITFGYSFQKPVLQKLSLEALKLYVAAENPFTIRADHRMEDFDPETASGRGVNTRGTSSIAFGVNLTF | not soluble |
| ISEFGSCPPGQFRCSEPPGAHGECYPQDWLCDGHPDCDDGRDEWGCG | soluble |
